Values quoted from earlier work as cited in paper PMC5347372.

Molecular target: alpha-factor (Saccharomyces cerevisiae) (UniProt P01149)

- Kd: 7 nM
Substance: Ste2 (from UniProt D6VTK4)
